Experimental data from publication PMC4592220, “Geminivirus Activates [sequence] LEAVES 2 to Accelerate Cytoplasmic DCP2-Mediated mRNA Turnover and Weakens RNA Silencing in Arabidopsis” (PLoS Pathogens, 2015).

B2: GST-AS2 (… LEAVES 2) (natural protein)
chain: MASSSTNSPCAACKFLRRKCQPECVFAPYFPPDQPQKFANVHKVFGASNVTKLLNELHPSQREDAVNSLAYEADMRLRDPVYGCVGVISLLQHQLRQLQIDLSCAKSELSKYQSLGILAATHQSLGINLLAGAADGTATAVRDHYHHHQFFPREQMFGGLDVPAGNNYDGGILAIGQITQFQQPRAAAGDDGRRTVDPS
notes: full-length cDNA

Key:
[1] = biological target: B2; assay: pull-down; 2 ug of GST/MBP/His/His-SUMO fusion proteins; binding buffer 50 mM Tris-HCl pH 7.5, 100 mM NaCl, 0.25% Triton X-100, 35 mM beta-mercaptoethanol, 2 h at 4 C, then glutathione sepharose 4B overnight; 6 washes; Western blot with anti-His, anti-GST or anti-MBP; details: both partners purified
[2] = biological target: T1, DCP2, recombinant (Arabidopsis thaliana, UniProt Q8GW31 1-373); assay: as above; details: both partners purified
T1 construct: mRNA decapping enzyme DCP2, Arabidopsis; full-length cDNA
T1 sequence: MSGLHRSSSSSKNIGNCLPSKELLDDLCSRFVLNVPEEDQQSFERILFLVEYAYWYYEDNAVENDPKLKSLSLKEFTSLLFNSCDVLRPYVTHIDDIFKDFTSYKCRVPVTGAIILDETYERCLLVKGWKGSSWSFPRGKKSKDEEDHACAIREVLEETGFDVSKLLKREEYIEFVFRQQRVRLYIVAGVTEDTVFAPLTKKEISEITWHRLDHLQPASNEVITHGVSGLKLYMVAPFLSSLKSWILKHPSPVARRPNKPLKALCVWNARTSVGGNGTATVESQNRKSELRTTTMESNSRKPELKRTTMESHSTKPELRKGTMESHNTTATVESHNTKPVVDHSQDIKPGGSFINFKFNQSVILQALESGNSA

B1: His-AS2 (… LEAVES 2) (natural protein)
chain: MASSSTNSPCAACKFLRRKCQPECVFAPYFPPDQPQKFANVHKVFGASNVTKLLNELHPSQREDAVNSLAYEADMRLRDPVYGCVGVISLLQHQLRQLQIDLSCAKSELSKYQSLGILAATHQSLGINLLAGAADGTATAVRDHYHHHQFFPREQMFGGLDVPAGNNYDGGILAIGQITQFQQPRAAAGDDGRRTVDPS
notes: full-length cDNA; The methods say the yeast SUMO tag was used to improve AS2 solubility; also called WT AS2
binding result [1]: binds

B2
binding result [2]: binds
